In the supplement of paper PMC12764529:
± gives the half width of the 95% confidence interval.

Key:
[1] = folding stability dG unfold from trypsin proteolysis; higher = more stable
How it was run: (§1)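 K50 was inferred by Bayesian fitting of sequencing counts obtained after protease digestion of designed mini-proteins. Unfolding free energy was derived by comparison with a sequence-predicted unfolded-state K50 and a shared folded-state K50, for each protease or both combined. The mini-proteins were under 80 residues, had no cysteine, were carried in a PA-tagged cDNA display construct, and were kept only if AlphaFold2 dimer inter-PAE exceeded 15.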

[2] = folding stability dG unfold (combined trypsin and chymotrypsin); higher = more stable
How it was run: as §1

[3] = folding stability dG unfold from chymotrypsin proteolysis; higher = more stable
How it was run: as §1

Sequence	folding stability dG unfold [1]	folding stability dG unfold [2]	folding stability dG unfold [3]
GMMPEVKEYEVVVEVSLSDPSFASMTPEELAERAVAEVAAKPDFDPVEVEILSVKELPDGTYVVKVRITVRS [r1_484_JUSTAS]	4.48 ± 0.2 kcal/mol	3.91 ± 0.14 kcal/mol	3.15 ± 0.12 kcal/mol
SAGMPETITIKIRNPETGKLYEIEIEKVDGEVKVTIRDVETGKERREITMTPEEVRELLKELGFEVEEVSAG [r5_291_TrROS_Hall]	1.42 ± 0.049 kcal/mol	2.63 ± 0.059 kcal/mol	3.1 ± 0.056 kcal/mol
SAGGPPIKKIEITKIHPGKGIIQVSIKLPGDGHPIMVRAEIDDPEPGKIKIEIQDPNNGQPQEITIKFSAGG [r13_337_TrROS]	1.23 ± 0.094 kcal/mol	1.1 ± 0.28 kcal/mol	0.683 ± 0.08 kcal/mol
SAGPKELAKQIKEIARELARAFHPNGQPMKMEVEIEPVSIDDENGWVRLKVKIRMPNRPVKFNITIPLKSAG [r5_53_TrROS]	2.04 ± 0.07 kcal/mol	2.72 ± 0.27 kcal/mol	3.19 ± 0.12 kcal/mol
SAGGSAGGSAGGKVKVLSVFELPNNKRLVLIETPSGKKILIVTDSSDPDKVKEKAKEIASAGGSAGGSAGGS [r10_472_TrMRF]	1.54 ± 0.02 kcal/mol	1.73 ± 0.037 kcal/mol	1.822 ± 0.017 kcal/mol
SAGGSAMKVVFYGDEASQKEIAEKAKKEGIEYEAYPGSREEILAYVKENYPDVKMIVYPEGKEYLISAGGSA [r15_712_JUSTAS]	0.0902 ± 0.072 kcal/mol	0.179 ± 0.073 kcal/mol	0.094 ± 0.18 kcal/mol
SAGGSAGGSAGPPPIEELLEQAKKNPNRPITIRNPGGYYIRITVKPDPNGKPEVEIEPVPSAGGSAGGSAGG [r11_300_TrROS]	0.259 ± 0.09 kcal/mol	0.263 ± 0.16 kcal/mol	0.336 ± 0.25 kcal/mol
SAGGSAGGSAGGLLEELKAKGYTVLSTPVPSPPDGVPTRTVLAKKGEGTVTFVVPAALLSAGGSAGGSAGGS [r10_35_JUSTAS]	-0.172 ± 0.18 kcal/mol	0.287 ± 0.23 kcal/mol	0.525 ± 0.17 kcal/mol
SAGGSAGGSAGGWIMVPIEIKVDLKWGPNGQHEIETVPILIIIRIPPPPVPEEQAEKNNGSAGGSAGGSAGG [r11_318_TrROS]	2.89 ± 0.15 kcal/mol	2.81 ± 0.19 kcal/mol	2.68 ± 0.07 kcal/mol
SKKTVYRIVIELENGEKLEIEVPLGSEVKIEKKEDGTITITVNGKKIEIKLKPGEKAKIVKIEKLPEEEESA [r9_773_TrROS_Hall]	2.1 ± 0.13 kcal/mol	2.52 ± 0.23 kcal/mol	2.48 ± 0.064 kcal/mol
SASFTLTPVTVTLSPDPETGAILAPVLATAGDHPVFGLAYVDPLDPSRAYYRIYYPPSDLVEYAVVPLPSAG [r14_178_TrMRF]	0.469 ± 0.066 kcal/mol	0.722 ± 0.097 kcal/mol	0.847 ± 0.15 kcal/mol
SAGMVVRITVLPEGEEREFVVAATPEEARELLEELGYEVEEFPELPVLVARRPDAVVLVEFIPVAPDALSAG [r5_248_TrMRF]	1.59 ± 0.032 kcal/mol	1.83 ± 0.039 kcal/mol	1.999 ± 0.015 kcal/mol
SAGGSAGGSNKKKKTIMFTIKLDVPEGTPTAEEIADELKELSPNVEIDNIMFTPNEVYIMIKVSAGGSAGGS [r12_454_TrROS]	1.16 ± 0.077 kcal/mol	1.61 ± 0.18 kcal/mol	1.84 ± 0.062 kcal/mol
SAGGSAGGIKELLEALGFEVVDVEPTDNKFMIMIRNPEEGRVVVIEIEWDGPPKIEIHPMPPNASAGGSAGG [r6_195_TrROS]	2.38 ± 0.065 kcal/mol	2.31 ± 0.13 kcal/mol	2.11 ± 0.04 kcal/mol
SAGMMTVEELKEKLKEAAEKAGVKVKEIKITGPDGKEITVEVDLSEEQLKKLAEELGLEIDEVEVREPSAGG [r19_50_TrROS_Hall]	1.3 ± 0.099 kcal/mol	1.67 ± 0.2 kcal/mol	1.75 ± 0.092 kcal/mol
SAGGSAGGSAGGSKFLVKTSVEVFKNPVGGNRYGAKITTLAVNPDTNEVTLSESYLPLDLSAGGSAGGSAGG [r7_216_TrMRF]	0.114 ± 0.11 kcal/mol	0.62 ± 0.12 kcal/mol	0.842 ± 0.13 kcal/mol
SAGGSKTITIELTTKDGYKFTITVTEKDDKVTANITFLDPTVTPEKIDETIATLEKLAKEAGKNLTISSAGG [r13_774_TrMRF]	2.62 ± 0.11 kcal/mol	3.36 ± 0.095 kcal/mol	3.66 ± 0.088 kcal/mol
SAGGSAGGSKITSIEEKDGFVRITIEVDGKTETKTIPKENLPPNITFPPGAKVKIEKVSKEDLSAGGSAGGS [r12_1005_TrROS_Hall]	0.449 ± 0.04 kcal/mol	1.32 ± 0.073 kcal/mol	1.74 ± 0.043 kcal/mol
SRIKISIFRPGKIIPEIPIKVDSVEEAVEKVLEYIRKFPPNAPYYIMIEVEHTDPANGQKQEGTVHIPIKSA [r9_245_TrROS]	2.22 ± 0.059 kcal/mol	3.39 ± 0.12 kcal/mol	4 ± 0.048 kcal/mol
SAGAGKTPDGKEYIIPFTFKNENGETTPEEIEEKIKEFTAKHPEVKIKEIKAIKEGDSVKVLVVVEKPASAG [r5_688_TrMRF]	2.61 ± 0.12 kcal/mol	2.74 ± 0.28 kcal/mol	2.77 ± 0.053 kcal/mol
SAGGKVTLRAPVVVPKDKIEDFIDALREALEALGLKEFKDIEIKEIIEGDDYYIIDFEVTAEADLPELASAG [r5_575_TrMRF]	2.65 ± 0.12 kcal/mol	2.32 ± 0.13 kcal/mol	2.21 ± 0.036 kcal/mol

Sequence	folding stability dG unfold [1]	folding stability dG unfold [2]	folding stability dG unfold [3]
SAGGSSMRKLIIIGPEGVTLERPIGPERTVEDVKAEWEAIGNVKFEEYPETGEVVVYLPEEALKEKSAGGSA [r2_164_JUSTAS]	0.601 ± 0.054 kcal/mol	1.22 ± 0.08 kcal/mol	1.47 ± 0.029 kcal/mol
SAGGMHLVIPFDSPEEALEAAKELKKEFEEKGYTVKVYYFPETGDIHVLVEMKTDGKTKYLNVTVPFPSAGG [r13_641_TrMRF]	0.83 ± 0.034 kcal/mol	1.73 ± 0.057 kcal/mol	2.05 ± 0.036 kcal/mol
SAGGAPTVELKTETIETEDGTYLVVEAKVPTPDVTLEIKLPHGGETEVVYDPETGTATVVFRLPPDWLSAGG [r13_380_TrMRF]	1.72 ± 0.088 kcal/mol	2.25 ± 0.15 kcal/mol	2.51 ± 0.053 kcal/mol
SEEEYLVIEVEFEVENPEEAREFAERLARELPLDEIESLEVEVEPREVFVEGEPVGPVYRFRVRAVVRPRSA [r9_605_TrMRF]	2.62 ± 0.069 kcal/mol	2.77 ± 0.079 kcal/mol	2.98 ± 0.048 kcal/mol
SAGGSAGGSMKRLPDGNLVVKLNNGSTWSVITIPVSPDESEEEIKQRLKELFGPNYPEYDISESAGGSAGGS [r12_300_JUSTAS]	1.08 ± 0.011 kcal/mol	1.04 ± 0.058 kcal/mol	0.917 ± 0.09 kcal/mol
SAGGHTIMFPVKSPEQARDEIRDFARDQGLPIEPEDITIEQHEFKDPENGKKYRFFEITIDVTLKPPSAGGS [r16_587_TrROS]	0.0514 ± 0.056 kcal/mol	1.02 ± 0.15 kcal/mol	1.49 ± 0.11 kcal/mol
FEELRNLPGLSLTPLAEEGEVRVYRLSLPPSVLAARGLPGVTVTVTVFPDGSYTVLPDDVPALEAAGLVVES [r1_256_JUSTAS]	1.05 ± 0.02 kcal/mol	2.03 ± 0.045 kcal/mol	2.43 ± 0.037 kcal/mol
SAGGSIETIAERARDLARELNPDDGKEYPITIEIRDPENNRPIRIKISVRYDPDGKIKKVKFTKFEPYSAGG [r13_770_TrROS]	1.03 ± 0.06 kcal/mol	1.06 ± 0.077 kcal/mol	1.04 ± 0.11 kcal/mol
SAGGSAGGKKKVLILPKGKKKEYTIEEAKKILKEKLPENAKVRLLETGKEYPVKDLLKKLGIDLSAGGSAGG [r6_936_TrMRF]	-0.276 ± 0.28 kcal/mol	-0.207 ± 0.45 kcal/mol	-0.411 ± 0.65 kcal/mol
SAGGSAGGLKEALKLAEELGAKPHVVKTKGNSEIVFLELKDGRKIRLLVENGKIKEIIPIPETPSAGGSAGG [r6_548_TrMRF]	1.86 ± 0.065 kcal/mol	2.08 ± 0.17 kcal/mol	2.39 ± 0.065 kcal/mol
SAGGSAGGSASMSYITKVEYKESPEGKLITTTTTTDPTSPNDVKTTTTVTPLPPLNPSPELKSAGGSAGGSA [r18_409_JUSTAS]	-0.309 ± 0.085 kcal/mol	-0.525 ± 0.29 kcal/mol	-0.829 ± 0.73 kcal/mol
SAGGSAELPSLGAEITVTEDPNRNTYTVTVPLVAPDGAPVGTLTVPFSSLEEARAFLRAQGLGELLSAGGSA [r15_127_JUSTAS]	2.59 ± 0.031 kcal/mol	2.773 ± 0.016 kcal/mol	2.836 ± 0.01 kcal/mol
SAGGSAGGPSYTIQFPYPPGMPPWRLQKLLEEAGYPPPEIEYNPKNGSHWITFSPEVRDAFKELSAGGSAGG [r6_307_TrROS]	0.476 ± 0.1 kcal/mol	0.676 ± 0.21 kcal/mol	0.845 ± 0.17 kcal/mol
SAGGSAGGSGSSTSANAGGIVTSSSTVPLPPDTRPVSVSTSTPSSKPVKTTVLPDKTVTTPLGSAGGSAGGS [r12_994_JUSTAS]	1.01 ± 0.035 kcal/mol	1.38 ± 0.048 kcal/mol	1.55 ± 0.028 kcal/mol
SAGGELVLLIRVTPERIEIRLLPKEALEGLELEAPPGERLLLVELEPPPPEEEEREERRREEREELEESAGG [r13_74_TrROS_Hall]	1.34 ± 0.13 kcal/mol	1.32 ± 0.41 kcal/mol	1.4 ± 0.23 kcal/mol
SAGGGMVRPSIKITKHPDTYVATVTVTHPHRPVTVTLPFSSEPEAISEAEKIVEELIATPVPSPAGASAGGS [r16_24_JUSTAS]	0.775 ± 0.037 kcal/mol	0.841 ± 0.11 kcal/mol	0.831 ± 0.072 kcal/mol
SAGGSAGGSAGGSIEIEITVELEDGYYLRISARFELNEDGSLKLEIKIELIKIEPGQELSAGGSAGGSAGGS [r10_241_TrROS_Hall]	3.52 ± 0.48 kcal/mol	3.18 ± 0.32 kcal/mol	2.27 ± 0.1 kcal/mol
SAGGDPIEDIVKEIAEEHGYPIKNVEVEPVDPNTLVVEVQMPNGYRIKIEIPYDPDGDLNINVEWEPSAGGS [r8_284_TrROS]	1.13 ± 0.11 kcal/mol	1.65 ± 0.23 kcal/mol	2.04 ± 0.045 kcal/mol
SAGGSAGGSAGGMTYVTVTLKEGDTEVTLTFPLEKLPEVVPEPGIEILEVETSPLDPELLSAGGSAGGSAGG [r17_204_JUSTAS]	1.34 ± 0.081 kcal/mol	1.05 ± 0.12 kcal/mol	0.737 ± 0.14 kcal/mol
SAGGIKIMIPPGMPEEEARELARMIASMLPDNGHNIDDVKVRPVKPMPPPDGEPHRMYEFEIKLEPPSAGGS [r16_266_TrROS]	1.01 ± 0.035 kcal/mol	0.738 ± 0.11 kcal/mol	0.35 ± 0.1 kcal/mol
SAGGSMIVIVEIKPDGTIKIKVRTKDGKEKTIEISKEELEKEETPEEIAEKLAKEFEKEGVEEIEISAGGSA [r2_249_TrROS_Hall]	2.88 ± 0.26 kcal/mol	2.26 ± 0.32 kcal/mol	2.19 ± 0.54 kcal/mol
